{"source": "paper PMC11410778", "key": {"[1]": {"molecular_target": "plasmid-encoded OmpT (pOmpT or ArlC) of avian pathogenic Escherichia coli E058 (Escherichia coli (avian pathogenic strain E058))"}, "[2]": {"molecular_target": "cOmpT D267S (Escherichia coli (avian pathogenic strain E058)) (UniProt P09169)"}, "[3]": {"molecular_target": "cOmpT S276T (Escherichia coli (avian pathogenic strain E058)) (UniProt P09169)"}, "[4]": {"molecular_target": "pOmpT S267D (Escherichia coli (avian pathogenic strain E058))"}, "[5]": {"molecular_target": "cOmpT D267S/S276T (Escherichia coli (avian pathogenic strain E058)) (UniProt P09169)"}, "[6]": {"molecular_target": "pOmpT T276S (Escherichia coli (avian pathogenic strain E058))"}, "[7]": {"molecular_target": "chromosome-encoded OmpT (cOmpT) of avian pathogenic Escherichia coli E058 (Escherichia coli (avian pathogenic strain E058)) (UniProt P09169)"}, "[8]": {"molecular_target": "pOmpT S267D/T276S (Escherichia coli (avian pathogenic strain E058))"}}}
{"substance": "synthetic FRET substrate 2Abz-SLGRKIQI-K(Dnp)-NH2 (peptide)", "values": [{"measurement": "Km of cleavage of the FRET substrate by whole E. coli BL21 expressing the protease (0–240 μM substrate, Michaelis–Menten fit)", "setting": "[1]", "result": 0.0667, "unit": "µM"}, {"measurement": "Km of cleavage of the FRET substrate by whole E. coli BL21 expressing the protease (0–240 μM substrate, Michaelis–Menten fit)", "setting": "[2]", "result": 0.0167, "unit": "µM"}, {"measurement": "Km of cleavage of the FRET substrate by whole E. coli BL21 expressing the protease (0–240 μM substrate, Michaelis–Menten fit)", "setting": "[3]", "result": 0.0475, "unit": "µM"}, {"measurement": "Km of cleavage of the FRET substrate by whole E. coli BL21 expressing the protease (0–240 μM substrate, Michaelis–Menten fit)", "setting": "[4]", "result": 0.0281, "unit": "µM"}, {"measurement": "Km of cleavage of the FRET substrate by whole E. coli BL21 expressing the protease (0–240 μM substrate, Michaelis–Menten fit)", "setting": "[5]", "result": 0.0408, "unit": "µM"}, {"measurement": "Km of cleavage of the FRET substrate by whole E. coli BL21 expressing the protease (0–240 μM substrate, Michaelis–Menten fit)", "setting": "[6]", "result": 0.0157, "unit": "µM"}, {"measurement": "Km of cleavage of the FRET substrate by whole E. coli BL21 expressing the protease (0–240 μM substrate, Michaelis–Menten fit)", "setting": "[7]", "result": 0.0107, "unit": "µM"}, {"measurement": "Km of cleavage of the FRET substrate by whole E. coli BL21 expressing the protease (0–240 μM substrate, Michaelis–Menten fit)", "setting": "[8]", "result": 0.0215, "unit": "µM"}]}
